From patent US20040132642A1, “Methods of inhibiting metastasis or growth of a tumor cell” (Government of the U.S.A., represented by the Secretary, …, priority 2002, published 2004)

Tested on: CXCR4-B16 cells
Assay: adhesion of CXCR4-B16 cells to resting DMEC in parallel plate flow chamber
Format: cell-based, murine
Details: exogenously added chemokine
Description: Prior to interaction with tumor cells, resting confluent DMEC or LMEC were exposed to 100 ng/ml of recombinant CXCL12 or CCL21 for 15 min at 20° C. as described (Cinamon et al., Nat. Immunol. 2: 515-22 (2001)). After unbound chemokine was washed away, calcein-AM-labeled (Molecular Probes, Eugene, Oreg.) CXCR4- or pLNCX2-B16 cells (2.5×10^5/ml in B16 medium) were injected at 1.5 dynes/cm^2 into a parallel plate flow chamber (Glycotech, Gaithersburg, Md.) containing confluent DMEC or LMEC. In some cases, tumor cells were treated with pertussis toxin (PTX, Calbiochem, San Diego, Calif.) at 100 ng/ml for 2 hours at 37° C. to block Gi-protein-coupled signaling. After two min, flow was stopped, which enabled B16 cells to interact with MEC in the absence of shear stress. After 5 min, shear was re-established at 1.5 dynes/cm^2 for up to 2 min in order to detach unbound cells; adherent cells were digitally photographed in 5-6 random fields (each field=1.18 mm^2) with excitation at 488 nm and emission at 513 nm using sufficient exposure time (˜1 s) to allow distinction between non-moving and moving cells (which appeared as dim streaks) (Fitzhugh et al. (2000), supra). Cells were then counted with the software program IPlab (Scanalytics, Fairfax, Va.). […]

B1: CCL21: recombinant chemokine used as control on DMEC (protein, UniProt O00585 24-134, looked up)
C-C motif chemokine 21: SDGGAQDCCLKYSQRKIPAKVVRSYRKQEPSLGCSIPAILFLPRKRSQAELCADPKELWVQQLMQHLDKTPSPQKPAQGCRKDRGASKTGKKGKGSKGCKRTERSQTPKGP
B1 was tested, and the “stimulation of adhesion of CXCR4-B16 cells to DMEC” value was “no effect”.
